The source of these data is patent US20040076637A1, “HIV-derived HR1 peptides modified to form stable trimers, and their use in therapy to inhibit transmission of human immunodeficiency virus” (priority 2002, published 2004).

One may read the Kd as the equilibrium constant for the complex coming apart. Low values mean tighter binding, high ones weaker binding.

Data set [1] is described as follows: Helicity by circular dichroism. The data set is classed as physicochemical. To be noted: at 10 μM, 25° C. As for the experimental part:
(§1) Helicity was assessed by circular dichroism (“CD”) as follows. Briefly, CD spectra were obtained using a spectrometer equipped with a thermoelectric temperature controller. The spectra was obtained at 25° C. with 0.5 nanometer (nm) steps from 200 to 260 nm, with a 1.5 nm bandwith, and a typical averaging time of 4 seconds/step. After the cell/buffer blank was subtracted, spectra were smoothed using a third-order least-squares polynomial fit with a conservative window size to give random residuals. Raw ellipticity values were converted to mean residue ellipticity using standard methods, and plotted was the wavelength (from 200 to 260 nm) versus [θ]×10^−3 (degrees cm^2/dmol). Percent helicity values were then calculated using standard methods. Assessment of thermal stability was performed by monitoring the change in CD signal at 222 nm as temperature was raised in 2° C. steps, with 1 minute equilibration times. The thermal stability for each sample (e.g., synthetic peptide) was represented by the transition temperature (Tm) determined by the derivative method.
(CD spectra are sensitive to the conformation of chiral molecules.)

In data set [2] the test system is HR2 peptide (SEQ ID NO:33) derived from the HR2 region of HIV-1 gp41. In words: HR2 peptide binding, fluorescence polarization assay. To be noted: ability to complex with HR2 peptide denoted as yes. An excerpt:
These include a protein chip assay (using Biacore analysis) in which surface plasmon resonance is used to detect the binding, and kinetics thereof, between a synthetic peptide and an HR2 peptide; and a fluorescence polarization assay. In the fluorescence polarization assay, a detectable moiety comprising a fluorescent dye (e.g., rhodamine and/or fluorescein) was used to label HR2 peptide, and the assay was then allowed to proceed under sufficient conditions and for a sufficient period of time for labeled peptide to bind to HR1 peptide, or synthetic peptide (or trimer formed therefrom).
In general terms: Fluorescence polarisation rises when a labelled molecule tumbles more slowly, as on binding a larger partner.

The test system of data set [3] is HIV IIIB. The data set is classed as cell-based, HIV-1. Particulars: for Antiviral activity against HIV IIIB IC50: 50% reduction in infectious virus titer; for Antiviral activity against HIV IIIB IC90: 90% reduction in infectious titer.
Data set [4] can be described thus: Oligomerization state by sedimentation equilibrium (analytical ultracentrifuge). Particulars: in solution, 4° C. The data set is classed as physicochemical. As for the experimental part: Oligomerization state was assessed by using methods standard in the art for performing sedimentation equilibrium experiments and for analysis of the resultant data. In that regard, sedimentation equilibrium experiments were performed over a concentration range of synthetic peptide (1 μM to […]) as follows. Briefly, six-channel cells (12 mm optical path length) were used with an An-60 Ti rotor operated at 13,500 rpm, 18,000 rpm, 22,000 rpm, and 35,000 rpm) in an analytical ultracentrifuge at 4° C. The cell radii were scanned using 0.001 cm steps with 10 averages/scan at 3 different wavelengths (235 nm, 240 nm, 280 nm). Data obtained with solutions containing synthetic peptide was analyzed using a single species model to determine a weight-averaged molecular weight (MW). Diagnostic plots of MW/MW0 vs. rpm/rpm0 and MW vs. radial concentration were used to test for sample homogeneity. When systemic residuals or a MW higher than monomer molecular weight indicated the presence of self-association, associative models were investigated. The suitability of a model (goodness of fit) was judged by the trends observed in the residuals.

Data set [5] is described as follows: Thermal stability (Tm) by CD signal at 222 nm. It is filed as physicochemical. To be noted: at 10 μM. As for the experimental part:
as §1

For data set [6] the following is noted: at concentrations of 5 μM or less; cited from earlier work.
Data set [7] deals with HIV infection of T cells. Particulars: cited from earlier work.
Data set [8] deals with HR2 peptide having the amino acid sequence of SEQ ID NO:33 (HIV-1). In words: surface plasmon resonance (Biacore protein chip assay). (SPR reads the build-up and loss of mass on a sensor chip optically.)

As for “SEQ ID NO: 38: Same as SEQ ID NO:32 except substitutions at 27, 34, 41, 48 and 23, 30, 44; Asp and Gln added to C-terminus (QARQLLSGIVQQQNNLLRAIEATQHAVQALVWGVKQLQARVLALERYIKDQ)”, the Helicity in data set [1] stood at 79%. Also, in data set [2], the HR2 peptide binding entry was “Yes”. Further, in data set [3], the “Antiviral activity against HIV IIIB IC50” value is 0.18 µg/mL and the “Antiviral activity against HIV IIIB IC90” value worked out at 0.88 µg/mL. The Oligomerization result in data set [4] is recorded as “Trimer*”. In data set [5], the “Stability Tm” value was 90 °C.

In turn, “SEQ ID NO: 39: Same as SEQ ID NO:32 except substitutions at 6, 20, 41, 48 and 9, 16, 44; Asp and Gln added to C-terminus (QARQLVSGLVQQQNNILRALEAQQHALQATVWGIKQLQARVLALERYIKDQ)” had a Helicity in data set [1] of 63%. Also, the HR2 peptide binding entry in data set [2] is “Yes”. In data set [3], the “Antiviral activity against HIV IIIB IC50” value was determined as 0.26 µg/mL and the “Antiviral activity against HIV IIIB IC90” value was determined as 1.20 µg/mL. The Oligomerization entry in data set [4] was “Trimer*”. Further, the “Stability Tm” value in data set [5] was found to be 68 °C.

With “DP107: HR1 peptide, also known as T-21, a synthetic peptide having the amino acid sequence of SEQ ID NO:2 (NNLLRAIEAQQHLLQLTVWGIKQLQARILAVERYLKDQ)”, in data set [6], the “Oligomerization state in solution” value is “monomer/dimer/tetramer equilibrium”. For the same molecule, the “50% effective concentration (EC50), blocked infection of T cells” value in data set [7] is 1 µg/mL.

Consider QARQLVSGLVQQQNNILRALEATQHAVQALVWGVKQLQARVLALERYIK (modifications not checked) [synthetic peptide having the amino acid sequence of SEQ ID NO:35], for which the Kd in data set [8] is 21.8 nM.
